In IntAct's records for PubMed 18007658:

B1: Syntaxin UFE1 (Saccharomyces cerevisiae), P41834 (parent)
chain: MMSDLTPIFRKYVAVIDDARNEQNGIDDHVERKQEDFGNSNETCEMFRDSFIKECARLLKFLVELNKVIKQIEKNYLDDFNMSDAEKDEFDMECRLQIQQYFKKFEFLENYEMERHNLSLKRFQSKSHRWSKILSNKNDNTKHVIHPQDIENGVYEFRLGVLRCLNLWIKYVSSKFTTIQQERLILENKMNFNSTPMPTLSNNADDFSADAIDISVSQSAPVETVQDEVKHYEETISKLTQEQLQVLETEHSELLNQKNEQLKKVETINKTILDIVNIQNELSNHLTVQSQNINLMLNNQDDIELNIKKGNKELRKAKRAAGRTAKMTTYGAIIMGVFILFLDYVG
partner: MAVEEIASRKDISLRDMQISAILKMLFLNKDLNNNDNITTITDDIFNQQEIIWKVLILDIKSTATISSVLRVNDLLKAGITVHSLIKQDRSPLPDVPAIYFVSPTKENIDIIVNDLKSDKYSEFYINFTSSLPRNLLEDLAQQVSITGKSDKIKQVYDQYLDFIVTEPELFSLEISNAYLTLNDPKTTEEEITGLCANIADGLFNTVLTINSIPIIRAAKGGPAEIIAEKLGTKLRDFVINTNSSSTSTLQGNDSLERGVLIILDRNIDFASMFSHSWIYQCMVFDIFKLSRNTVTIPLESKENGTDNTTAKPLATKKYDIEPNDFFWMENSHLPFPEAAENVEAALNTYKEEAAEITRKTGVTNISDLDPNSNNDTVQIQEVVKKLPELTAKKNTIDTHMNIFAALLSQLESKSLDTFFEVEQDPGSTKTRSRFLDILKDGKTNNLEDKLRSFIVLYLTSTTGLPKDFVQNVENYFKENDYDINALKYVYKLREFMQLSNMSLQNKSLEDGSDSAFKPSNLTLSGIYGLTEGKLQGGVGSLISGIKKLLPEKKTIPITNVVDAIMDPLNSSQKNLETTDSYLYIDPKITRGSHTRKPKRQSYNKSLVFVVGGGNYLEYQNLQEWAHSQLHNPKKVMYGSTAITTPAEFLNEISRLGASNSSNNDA
B2: Protein SLY1 (Saccharomyces cerevisiae), P22213 (parent)
chain: B1 partner
partner: B1 chain

Variants of: B1
Conditions: with sly1_yeast SLY1, P22213

effect of a mutation on the interaction	Variant
disrupting interaction	F9A

Variants of: B2
Conditions: with ufe1_yeast UFE1, P41834

effect of a mutation on the interaction	Variant
disrupting interaction	L137R

Variants of: B2
Conditions: with ufe1_yeast UFE1, P41834
Remark: another data set of the same source

effect of a mutation on the interaction	Variant
decreasing interaction	L137R
